One molecule from patent publication CN113563467A (SHANGHAI PUMING BIOLOGICAL TECH CO LTD, dated 2021) can be followed below.

For assay [1], the target named is T1, 人C5蛋白 in 人血清补体 (Normal Human Serum Complement, Quidel, A112) (human, UniProt P01031 19-1676). As to the kind of experiment: cell-based or functional assay.
Assay [2] has as its target T1, 人C5蛋白 in 人血清补体 (Normal Human Serum …). As to the kind of experiment: cell-based or functional assay. The source holds these as a separate data set.

T1 sequence (P01031 19-1676 limits assumed): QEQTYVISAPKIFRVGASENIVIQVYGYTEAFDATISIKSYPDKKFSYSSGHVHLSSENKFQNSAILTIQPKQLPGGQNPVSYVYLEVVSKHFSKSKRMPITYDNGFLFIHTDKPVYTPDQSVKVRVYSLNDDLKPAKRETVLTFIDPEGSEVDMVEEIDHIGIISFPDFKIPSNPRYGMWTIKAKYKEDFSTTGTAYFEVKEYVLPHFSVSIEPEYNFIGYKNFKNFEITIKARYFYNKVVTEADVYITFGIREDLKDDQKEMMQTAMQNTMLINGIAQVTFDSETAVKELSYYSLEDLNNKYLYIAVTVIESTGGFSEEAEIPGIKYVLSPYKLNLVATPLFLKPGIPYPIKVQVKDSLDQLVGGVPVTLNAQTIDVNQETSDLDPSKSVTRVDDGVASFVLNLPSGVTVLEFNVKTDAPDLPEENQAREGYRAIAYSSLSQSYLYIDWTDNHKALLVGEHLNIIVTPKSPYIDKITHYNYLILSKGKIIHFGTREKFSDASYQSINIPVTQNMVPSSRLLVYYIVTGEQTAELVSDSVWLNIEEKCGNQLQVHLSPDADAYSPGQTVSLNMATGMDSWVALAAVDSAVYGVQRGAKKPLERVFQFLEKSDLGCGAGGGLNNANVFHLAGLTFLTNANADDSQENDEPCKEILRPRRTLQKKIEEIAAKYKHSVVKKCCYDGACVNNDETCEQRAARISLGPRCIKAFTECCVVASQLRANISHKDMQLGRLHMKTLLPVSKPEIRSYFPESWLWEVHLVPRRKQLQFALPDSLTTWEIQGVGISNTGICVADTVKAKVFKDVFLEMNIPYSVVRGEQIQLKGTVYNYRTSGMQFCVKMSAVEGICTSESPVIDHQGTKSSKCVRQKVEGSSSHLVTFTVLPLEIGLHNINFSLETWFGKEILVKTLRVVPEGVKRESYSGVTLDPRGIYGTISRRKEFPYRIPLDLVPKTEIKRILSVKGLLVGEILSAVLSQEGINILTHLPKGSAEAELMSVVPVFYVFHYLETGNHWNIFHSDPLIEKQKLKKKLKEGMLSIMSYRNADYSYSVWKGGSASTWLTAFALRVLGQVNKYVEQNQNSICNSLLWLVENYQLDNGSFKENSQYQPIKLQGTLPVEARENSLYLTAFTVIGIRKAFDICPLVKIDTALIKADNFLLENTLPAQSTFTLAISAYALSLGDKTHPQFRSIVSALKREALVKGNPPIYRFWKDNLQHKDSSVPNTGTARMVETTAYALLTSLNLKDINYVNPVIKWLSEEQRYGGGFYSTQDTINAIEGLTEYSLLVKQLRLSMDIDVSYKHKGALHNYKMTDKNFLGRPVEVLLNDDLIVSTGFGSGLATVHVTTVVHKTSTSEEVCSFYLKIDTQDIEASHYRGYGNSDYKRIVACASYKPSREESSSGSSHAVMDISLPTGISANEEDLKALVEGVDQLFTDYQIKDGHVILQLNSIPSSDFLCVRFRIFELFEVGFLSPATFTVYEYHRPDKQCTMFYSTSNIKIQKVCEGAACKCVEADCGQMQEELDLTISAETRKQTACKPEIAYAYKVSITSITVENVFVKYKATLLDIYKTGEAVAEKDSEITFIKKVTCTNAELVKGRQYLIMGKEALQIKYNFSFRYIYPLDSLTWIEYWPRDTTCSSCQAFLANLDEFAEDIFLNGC

B1: Ref1 (对照抗体依库珠单抗可变区，hIgG1/hIgG-Kappa) (antibody, V domains shown)
VH: QVQLVQSGAEVKKPGASVKVSCKASGYIFSNYWIQWVRQAPGQGLEWMGEILPGSGSTEYTENFKDRVTMTRDTSTSTVYMELSSLRSEDTAVYYCARYFFGSSPNWYFDVWGQGTLVTVSS
VL: DIQMTQSPSSLSASVGDRVTITCGASENIYGALNWYQQKPGKAPKLLIYGATNLADGVPSRFSGSGSGTDFTLTISSLQPEDFATYYCQNVLNTPLTFGQGTKVEIKR
Turning to B1, the “IC50(ug/ml), 补体依赖性溶血实验” value in assay [1] worked out at 8.73 µg/mL. In addition, the “EC50(ug/ml), 补体依赖性细胞毒性(CDC)阻断分析” value in assay [2] was 2.63 µg/mL.
